Values of other authors, collected in US20150174267A1, “COMPOSITIONS AND METHODS FOR THE TRANSPORT OF THERAPEUTIC AGENTS” (Angiochem Inc., priority 2009, published 2015).
Where no end group is shown, it is not given here.

Columns and labels:
[1] = tested on: liver, lung, kidney, spleen, and muscle cells
[2] = for efficient transport across the BBB: efficiently = at least as efficiently as Angiopep-6

Row | Molecule | efficient transport across the BBB [2] | also measured
1 | Angiopep-7: targeting polypeptide of Table 1, SEQ ID NO:112 (TFFYGGSRGRRNNFRTEEY) | does not cross the BBB efficiently | efficient transport into particular cell types [1]: efficiently transported into liver, lung, kidney, spleen, and muscle cells
2 | COc1cc([C@@H]2c3cc4c(cc3[C@@H](O[C@@H]3O[C@@H]5CO[C@@H](C)O[C@H]5[C@H](O)[C@H]3O)[C@H]3COC(=O)[C@H]23)OCO4)cc(OC)c1OP(=O)(O)O [Etoposide phosphate, etoposide phosphate] |  | water solubility compared to etoposide: improved water solubility
3 | Angiopep-4a: targeting polypeptide of Table 1, SEQ ID NO:108 (RFFYGGSRGKRNNFKTEEY) | cross the mammalian BBB efficiently | 
4 | Angiopep-5: targeting polypeptide of Table 1, SEQ ID NO:110 (RFFYGGSRGKRNNFRTEEY; not fully specified (N-terminus)) | cross the mammalian BBB efficiently | 
5 | Angiopep-4b: targeting polypeptide of Table 1, SEQ ID NO:109 (RFFYGGSRGKRNNFKTEEY; not fully specified (N-terminus)) | cross the mammalian BBB efficiently | 
6 | Angiopep-6: targeting polypeptide of Table 1, SEQ ID NO:111 (TFFYGGSRGKRNNFRTEEY) | cross the mammalian BBB efficiently | transport across the BBB relative to that of Angiopep-1 ([2]; relative to Angiopep-1 (250 nM), in situ brain perfusion assay of US 2009/0016959): 38.5%
7 | Angiopep-2: targeting polypeptide of Table 1, SEQ ID NO:97 | cross the mammalian BBB efficiently | 
8 | Angiopep-1: targeting polypeptide of Table 1, SEQ ID NO:67 (TFFYGGCRGKRNNFKTEEY; not fully specified (C-terminus)) | cross the mammalian BBB efficiently | 
